For orientation: koff means a measure of how fast the partners let go of each other.

The chains are these.
B1: IL6RPMP108C10 (VHH)
VHH: EVQLVESGGGLVQPGGSLRLSCTASGRTFSDYDMGWFRQAPGKERECVAVIDTNGDNTLTVGSVKGRFAISRDNAKNTVYLQMNSLLPEDTAVYTCAAGAWSSLRSTAANYWGQGTQVTVSS
B2: IL6RPMP108F7 (VHH)
VHH: EVQLVESGGGLVQAGGSLRLSCTASGRTFSDYDMGWFRQAPGKERECVAVIDTNGDNTLTVGSVKGRFAISRDNAKNTVYLQMNSLLPEDTAVYTCAAGAWSSLRSTAANYWGQGTQVTVSS
B3: IL6RPMP108D10 (VHH)
VHH: EVQLVESGGGSVQAGGSLRLSCTASGRTFSDYDMGWFRQAPGKERECVAVIDTNGDNTLTVGSVKGRFAISRDNAKNTVYLQMNSLLPEDTAVYTCAAGAWSSLRSTAANYWGQGTQVTVSS
B4: IL6RPMP108D1 (VHH)
VHH: EVQLVESGGGLVQAGGSLRLSCTASGRTFSDYDMGWFRQAPGKERECVAVIDTNGDNTLTVGSVKGRFAISRDNAKNTVYLQMNSLLPEDTAVYTCAAGAWSSLRSTAANYWGQGTKVTVSS
B5: IL6RPMP103B2 (VHH)
VHH: EVQLVESGGGLVQPGGSLRLSCAASGSTFSINMMAWYCQAPGKQRELVASISSGGGINYADSVKGRFTISRDYAENSVDLQMNSLKPEDTAVYYCNARGTYLNGDHYSTNYNSWGQGTQVTVSS
B6: IL6RPMP105B8 (VHH)
VHH: EVQLVESGGGLVRAGGSLRLSCAASGFAFDDYAIGWFRQAPGKEREGVSSISSSNGNTYYADSVRGRFTISSDNAKNTVYLQMNSLKPEDTGVYYCAAIWGIFFNEKMPVGAYDYWGQGTQVTVSS
notes: family 3; periplasmic extract
B7: IL6RPMP105H10 (VHH)
VHH: EVQMVESGGGLVQAGGSLRLSCAASGFAFDDYAIGWFRQAPGKEREGVSSISSSNGNTYYADSVRGRFTISSDNAKNTVYLQMNSLKPEDAGVYYCAAIWGIFFNEKMPVGAYDYWGQGTQVTVSS
notes: family 3; periplasmic extract
B8: IL6RPMP103A5 (VHH)
VHH: EVQLVESGGGLVQAGDSLRLSCVASGLPFSTLHMGWFRQAPGKEHESVSAISSDGGSEYYAGSVKGRFTISRDNAKNTVYLQMNSLKPEDTAVYYCAADPRRIGANIKYSDYWGQGTQVTVSS
B9: IL6RPMP103A2 (VHH)
VHH: EVQLVESGGGLVQPGGSLRLSCAASGSIFSINTMGWYRQVPGKQRELVATVRSGSITNYADSVQDQFTITRDIDENTVYLQMNSLKPEDTAVYYCLTRASVPGRGYQDYWGQGTQVTVSS
B10: IL6RPMP103A4 (VHH)
VHH: EVQLVESGGGLVQPGGSLRLSCAASGSIFSINTMGWYRQVPGKQRELVATVRSGSITNYADSVQDRFTITRDIDENTVYLQMNSLKPEDTAVYYCLTRASVPGRGYQDYWGQGTQVTVSS
B11: IL6RPMP100D11 (VHH)
VHH: EVQLVESGGGLVQAGDSLRLSCLASGRSFKDDAMGWFRQAPGKEREFVSGIDWRGNIVDAESVKGRFTISRENAKNTLYLQMNHLKPEDTAVYYCAASSVFSDLRYRKNPKYWGQGTQVTVSS
B12: IL6RPMP101G11 (VHH)
VHH: EVQLVESGGGLVQPGGSLRLSCAASASGFTLDYYAIGWFRQAPGKEREGVSCISSTDGSTYYADSVKGRFTISRDNAKNTVYLQMNSLNPEDTGVYTCAAVLTTAQAMGVPTRSYEYDYWGQGTQVTVSS
notes: family 2; periplasmic extract
B13: IL6RPMP108C9 (VHH)
VHH: EVQLVESGGGLVQAGGSLRLSCAASGRTYAMAWFRQAPGKEREFVAAISIVTDYADSVKGRFNISRDNRENTVYLQMNSLKPEDTAVYYCAANTYYSGAYFPRGHEWYEYWGQGTQVTVSS
notes: family 16; periplasmic extract
B14: IL6RPMP108E9 (VHH)
VHH: EVQLVESGGGLVQAGGSLRLSCAFSRRSFGNFPMGWFRQRPGEEREYVAVISWNNNYIHYRDSVKGRFTASRDTSENRMYLQMNGLKPEDTAVYYCAARTKDNTLFTPAEEYDYWGQGTQVTVSS
notes: family 15; periplasmic extract
B15: IL6RPMP104E7 (VHH)
VHH: EVQLVESGGGLVQAGGSLRLSCAAGGSIFSINAMGWYRQAPGKQRELVASITSGGSTTYADSVKGRFTISRDNAKDTVYLQMNSLKPEDTAVYYCNAHIRFPFPNDYWGQGTQVTVSS
notes: family 18; periplasmic extract; also called PMP104E07
B16: IL6RPMP106B2 (VHH)
VHH: EVQLVESGGGLVQAGGSLRLSCAASGSIFRINAMGWYRQAPGKQRELVAAAISGGSTNYADFVKGRFTISRDNAKNTVYLQMNSLKPEDTAVYYCNALVVSHNYSDYVPFPDDYWGQGTQVTVSS
notes: family 6; periplasmic extract
B17: IL6RPMP105D3 (VHH)
VHH: EVQLEESGGGLVQAGGSLRLSCAASGSIFRINAMGWYRQAPGKQRELVAAAISGGSTNYADFVKGRFTISRDNAKNTVYLQMNSLKPEDTAVYYCNALVVSHNYSDYVPFPDDYWGQGTQVTVSS
notes: family 6; periplasmic extract
B18: IL6RPMP105C2 (VHH)
VHH: EVQLVESGGGLVQAGGSLRLSCAASGSIFRINAMGWYRQAPGEQRELVAAAISGGSTNYADFVKGRFTISRDNAKNTVYLQMNSLKPEDTAVYYCNALVVSHNYSDYVPFPDDYWGQGTQVTVSS
notes: family 6; periplasmic extract
B19: IL6RPMP106F7 (VHH)
VHH: EVQLVESEGGLVQAGGSLRLSCAASGSIFRINAMGWYRQAPGKQRELVAAAISGGSTNYADFVKGRFTISRDNAKNTVYLQMNSLKPEDTAVYYCNALVVSHNYSDYVPFPDDYWGQGTQVTVSS
notes: family 6; periplasmic extract
B20: IL6RPMP106D6 (VHH)
VHH: EVQLVESGGGLVQAGGSLRLSCAASGFTFDDYAIGWFRQAPGKEREGVSCMISSDGSTYYADSVKGRFTISSDNAKNTVYLQMDSLKPEDTAVYYCAADLSLYGCYVGDRDLYDYDYWGQGTQVTVSS
notes: family 22; periplasmic extract; also called PMP106D06
B21: IL6RPMP107E4 (VHH)
VHH: EVQLVESGGGLVQAGGSLRLSCAASGSIDRINAMGWYRQAPGKQRDFLAVITDGDKTLYADSVKGRFTISNDNAKNTVYLQMNSLKPEDTAVYYCNAYQAGWGDYWGQGTQVTVSS
notes: periplasmic extract
B22: IL6RPMP103C3 (VHH)
VHH: EVQLVESGGGLVQPGGSMRLSCAATGAIFSISTMGWYRQAPGAQREFVAGVGLDGTPNYADSVKGRFTISRDNTKNTVSLQMENLKPEDTGVYYCNIDEGMDYDGNFYDRWGQGTQVTVSS
notes: family 14; periplasmic extract
B23: IL6RPMP103F2 (VHH)
VHH: EVQLVESGGGLVQAGGSLRLSCVASGHTSDTYIMAWFRQAPGKEREFVASILWDGSITYYADSVKDRFTISRDISRKTLYLQMNSLRPEDTATYTCARGIYFSRRYVDPGIYGTWGQGTQVTVSS
notes: family 26; periplasmic extract

In one test the target is cynomolgus IL-6R used in Biacore (cynomolgus monkey). Nature of the test: Biacore, periplasmic extract. (In SPR one partner is held on a chip, and binding of the other changes the refractive index at the surface.)
Turning to B1, the koff is 0.00071 s⁻¹.

On to B2, for which the koff was determined as 0.00074 s⁻¹.

On to B3, for which the koff came to 0.0009 s⁻¹.

As to B4, the koff is 0.00079 s⁻¹.

B5 had a koff of 0.00045 s⁻¹.

As for B6, the koff is 0.01 s⁻¹.

Take B7: the koff was 0.01 s⁻¹.

B8 came in with a koff of 0.00074 s⁻¹.

As to B9, the koff is 0.001 s⁻¹.

Take B10: the koff worked out at 0.00045 s⁻¹.

In turn, B11 registered a koff of 0.00074 s⁻¹.

The next test addresses T1, human soluble IL-6R, recombinant (human, UniProt P08887 20-358).
T1 construct: also called human IL6-R; bio-IL-6R
T1 sequence (looked up): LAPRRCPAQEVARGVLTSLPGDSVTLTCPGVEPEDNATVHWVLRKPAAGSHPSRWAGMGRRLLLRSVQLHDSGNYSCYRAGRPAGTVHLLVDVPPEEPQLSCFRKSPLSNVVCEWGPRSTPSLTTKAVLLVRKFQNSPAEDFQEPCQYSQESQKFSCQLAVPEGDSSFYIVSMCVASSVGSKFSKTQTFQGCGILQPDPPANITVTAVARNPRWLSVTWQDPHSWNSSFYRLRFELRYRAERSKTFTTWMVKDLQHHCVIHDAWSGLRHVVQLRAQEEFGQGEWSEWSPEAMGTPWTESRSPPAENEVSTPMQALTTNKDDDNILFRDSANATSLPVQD
Put plainly: Biacore, periplasmic extract. As to the method: Periplasmic extracts of representative family clones were also analyzed on Biacore. Dissociation curves were used to calculate koff rates. koff rates are depicted in Table C-6.
Take B12: the koff was 0.00042 s⁻¹.

Turning to B13, the binding result is on record as “no binding”.

For B14, the binding result is “no binding”.

For B15, the koff was determined as 0.001 s⁻¹.

For the molecule B6, the koff amounted to 0.01 s⁻¹.

For the molecule B7, the koff worked out at 0.01 s⁻¹.

Regarding B16, the koff came out at 0.01 s⁻¹.

Turning to B17, the koff was found to be 0.01 s⁻¹.

As to B18, the koff was determined as 0.01 s⁻¹.

Regarding B19, the koff amounted to 0.01 s⁻¹.

Turning to B20, the koff turned out to be 0.001 s⁻¹.

Take B21: the dissociation rate constant (koff) turned out to be 0.01 s⁻¹.

As for B22, the binding result is reported as “no binding”.

Take B23: the binding result is listed as “no binding”.

These data come from patent US20120171209A1 (Ablynx, published 2012).
